T1: recombinant human RSPO3 protein, biotinylated (human, UniProt Q9BXY4 22-272, biotinylated (sites not given))
T1 sequence: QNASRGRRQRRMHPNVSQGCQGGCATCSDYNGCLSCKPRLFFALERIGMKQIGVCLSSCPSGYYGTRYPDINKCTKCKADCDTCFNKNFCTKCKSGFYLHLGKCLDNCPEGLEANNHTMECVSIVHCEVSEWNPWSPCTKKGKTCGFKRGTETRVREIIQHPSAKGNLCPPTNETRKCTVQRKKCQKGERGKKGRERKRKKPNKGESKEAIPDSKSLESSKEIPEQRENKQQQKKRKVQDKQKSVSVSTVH

T2: human RSPO3 (recombinant, R&D Systems) (human, UniProt Q9BXY4 22-272)
T2 sequence: T1 sequence

T3: LGR5-Fc fusion protein (human, UniProt O75473 22-564)
T3 construct: range 22-564; Expressed in insect cells with baculovirus, purified on protein A; also called soluble LGR5-Fc; not shown: human Fc
T3 sequence (looked up): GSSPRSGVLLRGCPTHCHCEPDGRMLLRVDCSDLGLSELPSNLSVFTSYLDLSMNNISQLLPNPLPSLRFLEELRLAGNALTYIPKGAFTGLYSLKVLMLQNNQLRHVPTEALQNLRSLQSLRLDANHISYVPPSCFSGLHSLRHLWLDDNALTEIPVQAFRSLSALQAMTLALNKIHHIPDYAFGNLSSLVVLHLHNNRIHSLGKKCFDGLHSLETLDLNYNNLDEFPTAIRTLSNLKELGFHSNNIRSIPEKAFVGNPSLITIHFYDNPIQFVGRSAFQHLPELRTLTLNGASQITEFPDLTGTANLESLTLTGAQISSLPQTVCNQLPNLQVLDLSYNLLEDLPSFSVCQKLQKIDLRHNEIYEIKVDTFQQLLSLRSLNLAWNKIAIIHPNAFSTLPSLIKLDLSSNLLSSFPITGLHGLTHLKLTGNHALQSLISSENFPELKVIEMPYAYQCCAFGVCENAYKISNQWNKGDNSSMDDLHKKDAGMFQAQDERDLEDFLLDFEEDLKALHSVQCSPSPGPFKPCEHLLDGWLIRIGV

B1: anti-RSPO3 antibody 131R003 (antibody, human IgG2, kappa, V domains shown)
VH: QVQLKQSGPELVKPGASVKISCKASGYTFTDYSIHWVKQNHGKSLDWIGYIYPSNGDSGYNQKFKNRATLTVDTSYSTAYLEVRRLTFEDSAVYYCATYFANYFDYWGQGTTLTVSS
VL: DIVLTQSPASLAVSLGQRATISCKASQSVDYDGDSYMNWYQQKPGQPPKLLIYAASNLESGIPARFSGSGSGTDFTLNIHPVEEEDAATYYCQQSNEDPLTFGAGTKLELKR
notes: Same light chain as 131R002; also called parental 131R003; 131R003 (IgG2)
B2: anti-RSPO3 antibody 131R002 (antibody, human IgG2, kappa, V domains shown)
VH: B1 VH with K5Q, Q6E, Y76S
VL: B1 VL
notes: Same light chain as 131R003; also called 131R002 (IgG2)
B3: humanized anti-RSPO3 antibody h131R011 (antibody, human IgG2, kappa, V domains shown)
VH: QVQLVQSGAEVKKPGASVKVSCKASGYTFTDYSIHWVRQAPGQGLEWIGYIYPSNGDSGYNQKFKNRVTMTRDTSTSTAYMELSRLRSEDTAVYYCATYFANNFDYWGQGTTLTVSS
VL: DIQMTQSPSSLSASVGDRVTITCKASQSVDYDGDSYMNWYQQKPGKAPKLLIYAASNLESGVPSRFSGSGSGTDFTLTISPVQAEDFATYYCQQSNEDPLTFGAGTKLELKR
notes: IgG2; also called h131R011 (IgG2)
B4: 131R003CDR3 variant (antibody, human IgG2, kappa, V domains shown)
VH: B1 VH with Y103N
VL: B1 VL
notes: also called 131R003 CDR3 variant (IgG2); 131R003 Heavy chain - Variant 1
B5: humanized anti-RSPO3 antibody h131R007 (antibody, human IgG2, kappa)
heavy: QVQLVQSGAEVKKPGASVKVSCKASGYTFTDYSIHWVRQAPGQGLEWIGYIYPSNGDSGYNQKFKNRVTMTRDTSTSTAYMELSRLRSEDTAVYYCATYFANNFDYWGQGTTLTVSSASTKGPSVFPLAPCSRSTSESTAALGCLVKDYFPEPVTVSWNSGALTSGVHTFPAVLQSSGLYSLSSVVTVPSSNFGTQTYTCNVDHKPSNTKVDKTVERKCCVECPPCPAPPVAGPSVFLFPPKPKDTLMISRTPEVTCVVVDVSHEDPEVQFNWYVDGVEVHNAKTKPREEQFNSTFRVVSVLTVVHQDWLNGKEYKCKVSNKGLPAPIEKTISKTKGQPREPQVYTLPPSREEMTKNQVSLTCLVKGFYPSDIAVEWESNGQPENNYKTTPPMLDSDGSFFLYSKLTVDKSRWQQGNVFSCSVMHEALHNHYTQKSLSLSPGK
light: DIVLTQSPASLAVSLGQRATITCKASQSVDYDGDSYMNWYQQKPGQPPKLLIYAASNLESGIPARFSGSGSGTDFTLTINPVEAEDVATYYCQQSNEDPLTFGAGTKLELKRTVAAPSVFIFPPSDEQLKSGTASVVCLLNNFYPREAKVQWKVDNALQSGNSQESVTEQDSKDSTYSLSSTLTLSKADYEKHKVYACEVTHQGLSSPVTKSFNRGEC
notes: IgG2; also called h131R005/131R007; h131R005
B6: RSPO4-Fc fusion protein (Fc fusion, not shown: a dimerising Fc or GST; small tags and cut ends)
chain: NRRKKQVGTGLGGNCTGCIICSEENGCSTCQQRLFLFIRREGIRQYGKCLHDCPPGYFGIRGQEVNRCKKCGATCESCFSQDFCIRCKRQFYLYKGKCLPTCPPGTLAHQNTRECQGECELGPWGGWSPCTHNGKTCGSAWGLESRVREAGRAGHEEAATCQVLSESRKCPIQRPCPGERSPGQKKGRKDRRPRKDRKLDRRLDVRPRQPGLQP
notes: Full-length human RSPO4 ligated in-frame to a human Fc region, expressed in insect cells
B7: RSPO2-Fc fusion protein (Fc fusion)
chain: QGNRWRRSKRASYVSNPICKGCLSCSKDNGCSRCQQKLFFFLRREGMRQYGECLHSCPSGYYGHRAPDMNRCARCRIENCDSCFSKDFCTKCKVGFYLHRGRCFDECPDGFAPLEETMECVEGCEVGHWSEWGTCSRNNRTCGFKWGLETRTRQIVKKPVKDTIPCPTIAESRRCKMTMRHCPGGKRTPKAKEKRNKKKKRKLIERAQEQHSVFLATDRANQ
notes: Full-length human RSPO2 ligated in-frame to a human Fc region, expressed in insect cells; not shown: human Fc region
B8: RSPO3-Fc fusion protein (Fc fusion)
chain: T1 sequence
notes: Full-length human RSPO3 ligated in-frame to a human Fc region, expressed in insect cells; not shown: human Fc region
B9: RSPO1-Fc fusion protein (Fc fusion)
chain: SRGIKGKRQRRISAEGSQACAKGCELCSEVNGCLKCSPKLFILLERNDIRQVGVCLPSCPPGYFDARNPDMNKCIKCKIEHCEACFSHNFCTKCKEGLYLHKGRCYPACPEGSSAANGTMECSSPAQCEMSEWSPWGPCSKKQQLCGFRRGSEERTRRVLHAPVGDHAACSDTKETRRCTVRRVPCPEGQKRRKGGQGRRENANRNLARKESKEAGAGSRRRKGQQQQQQQGTVGPLTSAGPA
notes: not shown: human Fc region

Changes are numbered by the printed parent chain.

The first assay addresses T1, recombinant human RSPO3 protein, …. In words: SPR (Biacore 2000), biotinylated human RSPO3 captured on streptavidin chip, antibody injected 100-0.78 nM. The method, then:
The antibodies were serially diluted 2-fold from 100 nM to 0.78 nM in HBS-P (0.01M HEPES pH 7.4, 0.15M NaCl, 0.005% v/v Surfactant P20) and were injected over the chip surface. Kinetic data were collected over time and were fit using the simultaneous global fit equation to yield affinity constants (KD values) for each antibody.
For orientation: In SPR one partner is held on a chip, and binding of the other changes the refractive index at the surface.
What is called Kd is the equilibrium constant for the complex coming apart. On to B1, for which the Kd amounted to 7.3 nM.

B2: the Kd worked out at 8.2 nM.

The target of a further assay is T2, human RSPO3 (recombinant, R&D Systems). Briefly: SPR (Biacore 2000), antibody captured by goat anti-human IgG on CM5 chip, human RSPO3 injected 300-37.5 nM. The method, then: The method used was different than described in Example 3. A goat anti-human IgG antibody was coupled to a carboxymethyl-dextran (CM5) SPR chip using standard amine-based chemistry (NHS/EDC) and blocked with ethanolamine. Antibodies (purified antibody or culture supernatant) were diluted to a concentration of 10 μg/ml in HBS-P-BSA (0.01M HEPES pH7.4, 0.15M NaCl, 0.005% v/v Polysorbate 20, 100 μg/ml BSA) and captured onto the chip via the anti-human IgG antibody. […] After each antigen injection 5 μl of 100 mM H₃PO₄ was injected to remove the antigen-antibody complex and a subsequent injection performed. Kinetic data were collected over time and were fit using the simultaneous global fit equation to yield affinity constants (KD values) for each antibody (Table 4).
B3: the dissociation constant (Kd) stood at 0.686 nM.

In the case of B1, the dissociation constant (Kd) is 1.9 nM.

On to B4, for which the Kd was 1.7 nM.

B2: the dissociation constant (Kd) came out at 1.3 nM.

B5: the dissociation constant Kd worked out at 0.654 nM.

The target of another assay is T3, LGR5-Fc fusion protein. Briefly: SPR (Biacore 2000), RSPO-Fc amine-coupled to CM5 chip, soluble LGR5-Fc injected 100-0.78 nM. How it is done: Binding affinities between RSPO proteins and LGR5 were analyzed by surface plasmon resonance. A soluble LGR5-Fc construct was generated using standard recombinant DNA techniques. Specifically, amino acids 1-564 of human LGR5 were ligated in frame to human Fc and the recombinant LGR5-Fc fusion protein was expressed in insect cells using baculovirus. The LGR5-Fc fusion protein was purified from the insect medium using protein A chromatography. Cleavage of the LGR5 signal sequence results in a mature LGR5-Fc fusion protein containing amino acids 22-564 of LGR5. […] Two-fold dilutions of soluble LGR5-Fc were injected over the chip surface (100 nM to 0.78 nM). Kinetic data were collected over time using a Biacore 2000 system from Biacore Life Sciences (GE Healthcare) and the data were fit using the simultaneous global fit equation to yield affinity constants (KD values) for each RSPO protein (Table 3).
Molecule B6 displayed a dissociation constant Kd of 73 nM.

B7: the affinity, expressed as Kd, was 14 nM.

Turning to B8, the dissociation constant (Kd) was less than 1 nM.

Regarding B9, the Kd is 110 nM.

Values taken from patent US20140017253A1 (ONCOMED PHARMACEUTICALS, published 2014).
